In patent US6660837B1, “Modified protein derived from protein kinase N” (Kirin Beer Kabushiki Kaisha, priority 1995, dated 2003):

Legend:
[1] = molecular target: T1, head-rod domain of NFL (Homo sapiens, UniProt P07196); assay: In vitro binding of in vitro translated PKN to GST-NFL; settings: GST pull-down
T1 construct: made in house; host or cells: bacteria (bacterially synthesized)
T1 sequence (P07196 1-349): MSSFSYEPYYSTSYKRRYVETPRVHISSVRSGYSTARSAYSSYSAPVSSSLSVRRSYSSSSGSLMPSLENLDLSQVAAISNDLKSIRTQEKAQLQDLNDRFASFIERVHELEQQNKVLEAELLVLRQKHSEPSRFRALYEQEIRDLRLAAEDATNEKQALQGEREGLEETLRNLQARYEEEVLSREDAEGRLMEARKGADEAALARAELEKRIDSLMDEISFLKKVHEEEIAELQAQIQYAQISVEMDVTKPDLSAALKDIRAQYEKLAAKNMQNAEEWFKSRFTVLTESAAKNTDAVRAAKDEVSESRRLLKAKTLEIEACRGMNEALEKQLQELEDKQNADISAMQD
Excerpt: For in vitro transcription, truncated human PKN was made as follows; Expression vector pPKNN2 for N-terminal region of PKN (the amino acid sequence 1-474 in SEQ ID NO: 1, this region was designated as “PKNN2”) was made by digesting phPKN-H4 (a plasmid containing human PKN cDNA in pBluescript II SK (Mukai, H. & Ono, Y., Biochem. Biophys. Res. Commun. 199, 897-904 (1994)) with Bst EII, and filling in the ends with T4 DNA polymerase, and self-legation. This removed the original amino acid sequences C-terminal downstream of the BstEII site (1425 nucleotides from initiating ATG codon), and a stop codon was created in the plasmid sequence. Fragment coding for the amino acid sequence 614-942 in SEQ ID NO: 1, (This region was designated as “PKNC2”) containing the conserved catalytic domain of human PKN was made by PCR amplification. Expression vector pPKNC2 was made by subcloning this fragment into pRc/CMV (Invitfrogen Corp.). These plasmids were linealized by cutting with XbaI, and CRNA was transcribed using T7 RNA polymerase. For NFL, pBL (Nakagawa, T. et al., J. Cell. Biol. 129, 411-429 (1995)) was linealized by cutting with HindIII, and CRNA was transcribed using T3 RNA polymerase. For in vitro translation, these cRNAs were translated in rabbit reticulocyte lysate (Promega) in the presence of [^35S] methionine. […]

[2] = tested on: head-rod domain of vimentin; assay: Yeast two-hybrid, PKN N-terminal region with vimentin; type: binding; settings: data not shown
Excerpt: Specificity of the interaction between PKN and various NFs was investigated by measuring the ability of the two-hybrid constructs, pBTM116(Vojtek, A. B. et al., Cell, 74, 205-214 (1993)) (instead of pGBT9)-PKN and pVP16 (Vojtek, A. B. et al., Cell, 74, 205-214 (1993)) (instead of pGAD10)-NF or in reverse, to support lacZ expression in L40 cells.
To determine whether N-terminal region of PKN binds to NFM or NFH as well as NFL, corresponding region to the head-rod domain of NFM or NFH was ligated to pVP16 and lacZ expression was measured in two-hybrid system. The N-terminal region of PKN bound to each head-rod domain of NF subunit (FIG. 11(B)), and also interacted with the corresponding head-rod domain of vimentin, a ubiquitously expressed member of intermediate filament, in two-hybrid system (data not shown).

binding to head-rod domain of NFL in vitro [1]: bound
Substance: N-terminal region of PKN: N-terminal regulatory region of human PKN: 1-540 (PKNN1) in two-hybrid and GST fusions, 1-474 when in vitro translated
interaction with head-rod domain of vimentin in two-hybrid system [2]: interacted
